The source of these data is patent US20240148892A1 (DUALITY BIOLOGICS SUZHOU, published 2024).

The target of assay [1] is T1, Human B7-1 protein, His Tag (human, UniProt P33681 35-242).
T1 construct: Bought protein; also called ACRO B71-H5228; not shown: His tag
T1 sequence (looked up): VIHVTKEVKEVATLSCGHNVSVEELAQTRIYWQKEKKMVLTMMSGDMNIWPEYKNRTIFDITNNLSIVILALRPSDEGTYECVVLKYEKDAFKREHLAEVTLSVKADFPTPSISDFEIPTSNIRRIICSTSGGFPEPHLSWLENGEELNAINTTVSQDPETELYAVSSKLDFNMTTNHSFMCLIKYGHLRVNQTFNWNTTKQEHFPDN
Description: ELISA, B7 family protein immobilized on plate, serially diluted antibody. Here is the method:
(§1) Human PD-Ll protein (see the table above), human B7-H2 protein, human B7-H3 protein, human B7-H4 protein, human B7-H5 protein, human B7-H6 protein, human B7-1 protein, human B7-2 protein, human PD-L2 protein, human B7-H7 protein, and human BTNL2 protein were separately immobilized on 96-well plates by incubation at 4° C. overnight. The 96-well plates were then blocked by incubation with 1% BSA in PBS at 37° C. for 1 h. After blocking, the 96-well plates were washed 3 times with PBST (PBS containing 0.05% Tween 20). […] After incubation, the 96-well plates were washed 3 times with PBST, incubated with a secondary antibody (see the table above) in binding buffer at 37° C. for 1 h, and then washed again. TMB was added for color development, and the reaction was stopped by 1 M H₂SO₄.

The target in the next assay is T2, Human B7-H7, His Tag (human, UniProt Q9UM44 23-344).
T2 construct: Bought protein; also called human B7-H7 protein; ACRO B77-H52H5; not shown: His tag
T2 sequence (looked up): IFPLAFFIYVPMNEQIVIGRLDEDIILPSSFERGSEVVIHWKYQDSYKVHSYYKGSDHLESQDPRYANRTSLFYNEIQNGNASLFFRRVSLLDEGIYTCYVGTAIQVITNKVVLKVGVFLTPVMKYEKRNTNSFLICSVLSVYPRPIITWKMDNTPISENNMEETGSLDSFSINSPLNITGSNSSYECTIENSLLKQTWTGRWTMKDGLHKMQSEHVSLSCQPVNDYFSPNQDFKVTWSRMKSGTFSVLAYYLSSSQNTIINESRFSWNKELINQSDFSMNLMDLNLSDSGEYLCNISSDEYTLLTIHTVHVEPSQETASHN
The description is as above. How it is done:
as §1

The target of assay [2] is T3, Human B7-2 protein, His Tag (human, UniProt P42081 24-247).
T3 construct: Bought protein; also called ACRO CD6-H5223; not shown: His tag
T3 sequence (looked up): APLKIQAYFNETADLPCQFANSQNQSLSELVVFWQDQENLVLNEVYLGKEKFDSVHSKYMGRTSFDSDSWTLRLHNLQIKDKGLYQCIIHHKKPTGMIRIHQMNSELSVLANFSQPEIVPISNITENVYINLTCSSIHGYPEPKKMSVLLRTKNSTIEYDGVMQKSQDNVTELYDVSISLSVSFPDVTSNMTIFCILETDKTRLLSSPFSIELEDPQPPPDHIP
Described as above. How it is done: as §1

In assay [3] the target is T4, Human PD-L2, His Tag (confirmed by SPR) (human, UniProt Q9BQ51 20-219).
T4 construct: Bought protein; also called human PD-L2 protein; ACRO PD2-H5220; not shown: His tag
T4 sequence (looked up): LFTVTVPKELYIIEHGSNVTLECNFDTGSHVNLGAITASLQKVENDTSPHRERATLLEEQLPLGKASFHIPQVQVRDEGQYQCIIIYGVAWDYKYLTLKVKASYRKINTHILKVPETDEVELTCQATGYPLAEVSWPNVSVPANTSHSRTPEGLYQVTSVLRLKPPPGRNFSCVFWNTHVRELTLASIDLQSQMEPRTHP
The description is as above. How it is done: as §1

Assay [4] concerns the target T5, human full-length B7H3 expressed on MCF-7 cells (human, UniProt Q5ZPR3 29-534).
T5 sequence: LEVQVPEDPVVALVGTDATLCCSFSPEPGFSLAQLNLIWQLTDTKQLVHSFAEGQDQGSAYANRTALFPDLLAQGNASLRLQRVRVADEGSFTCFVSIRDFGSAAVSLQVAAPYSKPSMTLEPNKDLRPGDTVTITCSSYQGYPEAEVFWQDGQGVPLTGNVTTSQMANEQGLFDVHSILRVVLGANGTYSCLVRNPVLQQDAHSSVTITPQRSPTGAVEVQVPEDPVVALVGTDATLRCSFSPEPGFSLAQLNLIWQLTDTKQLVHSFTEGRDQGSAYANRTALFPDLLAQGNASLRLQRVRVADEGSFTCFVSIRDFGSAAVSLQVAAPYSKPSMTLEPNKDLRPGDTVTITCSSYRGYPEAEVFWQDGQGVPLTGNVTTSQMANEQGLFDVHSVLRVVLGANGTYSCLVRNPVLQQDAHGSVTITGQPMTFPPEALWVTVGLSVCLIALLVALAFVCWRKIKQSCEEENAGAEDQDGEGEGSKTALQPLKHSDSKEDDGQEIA
Description: cell-based or functional assay.

B1: W301088-1.145.16-z3-p1-uIgG1KV320 (antibody, V domains shown)
VH: QVQLQESGPGLVKPSQTLSLTCTVTDYSITGDYAWNWIRQHPGKGLEWIGYISYSGSTSYNPSLQSRVTISRDTSKNQFSLKLSSVTAADTAVYFCARSLGRRWYFVVWGQGTTVTVSS
VL: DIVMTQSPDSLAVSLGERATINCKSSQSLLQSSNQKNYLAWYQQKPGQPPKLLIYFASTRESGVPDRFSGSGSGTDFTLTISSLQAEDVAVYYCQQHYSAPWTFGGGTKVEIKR
notes: Humanized, PTM-removed (VL N027dQ) human IgG1 LALA kappa antibody; also called WBP301088; W301088-z3-p1
For B1, the binding result is recorded as “no binding” in assay [1]; “no binding” with Human B7-H7, His Tag; “no binding” in assay [2]; “no binding” in assay [3]. In addition, the “Antibody internalization EC50, MCF-7 cells (value in running text, differs from Table 16)” value in assay [4] was 0.51 nM.
